Measurements: article PMC3696110, “Hsp70 Oligomerization Is Mediated by an Interaction between the Interdomain Linker and the Substrate-Binding Domain” (PLoS ONE, 2013)
Values joined by “and” are separate entries in the source; they are usually repeats but may differ in a detail not shown here. Equal values may be shown once.

Tests used:
[1] = SEC/DLS of oligomeric species; assay type: physicochemical, human; conditions: SEC, 20 µM SBD641
Description: Analytical SEC was performed at 4 °C using a Superdex 75 10/300 GL column (GE Healthcare LifeSciences, Little Chalfont, U.K.), which had previously been calibrated using a mixture of standard proteins (Gel Filtration LMW Calibration Kit; GE Healthcare LifeSciences, Little Chalfont, U.K.). Typically, samples of the various constructs contained 70 µM of protein in 50 mM Tris buffer at pH 7.4, with 150 mM KCl, 5 mM MgCl2 and were incubated for 15 min (unless otherwise specified) at room temperature before being loaded onto the column for analysis. To evaluate the reversibility of the oligomerization process, the different elution peaks obtained for each protein variant were subsequently analyzed after concentrating the different fractions using AmiconUltra-0.5, Ultracel-3 Membrane, 3 kDa (Millipore, Bedford, MA, USA). […]
Dynamic light scattering. Representative size distributions of SBD641 at different protein concentrations in Tris 50 mM, pH 7.4, 150 mM KCl, 5 mM MgCl2 were recorded at 25 °C on the Zetasizer Nano ZS instrument (Malvern Instruments Ltd.) at 633 nm after 1 h of incubation at room temperature. […] Some samples were analyzed after 1 h and 4 h incubation at room temperature and the same intensity size distributions were obtained. The samples were centrifuged for 15 min at 13200 rpm to remove dust particles and the scattered light was detected at an angle of 173°. […]

[2] = Secondary structure content from far-UV CD; assay type: physicochemical, human; conditions: K2D software; 20 µM protein, 7 mM Tris pH 7.4, 170 mM KCl, 5 mM MgCl2; 25 °C
Description: Far-UV CD spectra for all protein variants were recorded using a Jasco J-810 spectropolarimeter equipped with a Peltier holder, using a 0.1 cm path length cuvette. Typically, samples contained 20 µM protein in 7 mM Tris buffer at pH 7.4, containing 170 mM KCl and 5 mM MgCl2. The far-UV CD spectra of all the variants in their native, thermally denatured and refolded states were recorded from 198 to 250 nm, and the spectrum of the buffer was systematically subtracted from the spectra of all protein samples. The secondary structure content was estimated from the far-UV CD spectrum for each protein variant using K2D software.

refolded SBD641 = experiment: Fluorescence titration of dansyl-NR peptide binding, refolded protein; design: species or system human; conditions: refolded vs native SBD641, fluorescence titration
Description: The interaction between the different Hsp70 variants and the NR peptide was studied in 50 mM Tris buffer at pH 7.4, with 150 mM KCl, and 5 mM MgCl2 using fluorescence spectroscopy by titrating different concentrations of chaperone into a solution containing 2 µM dansyl-NR peptide (N-terminally labeled; Genemed Synthesis Inc., San Antonio, TX, USA) after incubating the mixtures for 1 h at 25°C. The concentration of dansyl-NR peptide was calculated using an extinction coefficient at 327 nm of 4300 M^-1.cm^-1 [39]. The fluorescence emission spectrum of each sample was recorded from 400 to 630 nm after excitation at 330 nm, and the data reported correspond to the average intensity at the maximum emission wavelength of two different samples for which ten spectra were recorded. The increase in fluorescence signal was plotted as a function of chaperone concentration (Figure S2), and analyzed assuming single-site binding using the following equation:
ΔF=ΔFmaxΘL=ΔFmax/2LT[(PT+LT+Kd)−(PT+LT+Kd)^2−4PTLT] (1)
where ΘL is the fraction of bound ligand, ΔF is the increase in fluorescence intensity observed at a given concentration of Hsp70 variant, ΔF max is the increase in fluorescence at saturation, L T and P T are the total ligand and protein concentration respectively, and K d is the apparent dissociation constant of the complex. […]

[3] = nESI-MS relative populations of oligomeric forms; assay type: physicochemical, human; conditions: 150 mM ammonium acetate
Description: Prior to MS analysis, samples were buffer exchanged into 150 mM ammonium acetate, pH 7.4, using Micro Bio-spin 6 columns (Bio-Rad, Digilab Division, Cambridge, MA, USA). For all the experiments protein concentrations ranging from 6 to 18 µM were used. In the case of the substrate binding experiments, proteins were analyzed in the presence of a 1: 1 molar ratio of the NR peptide; this substrate concentration, lower than in the SEC experiments, was chosen to ensure adequate resolution of the various charge state series, which is critical for unambiguous assignment of substrate-bound states. Due to suppression effects during nESI ionization, a relatively limited set of molar ratios could be investigated by in this way.
nESI-MS spectra were obtained according to a previously published protocol on an orthogonal time-of-flight mass spectrometer with a Z-spray source (LCT, Waters, Manchester, UK) in positive ion mode using the following parameters: capillary voltage, 1500 V; sample cone voltage, 120 V (unless otherwise specified); extraction cone voltage, 1V; and ion transfer stage pressure, 8.8 mbar. Spectra were calibrated externally using a 33 mg/ml solution of cesium iodide. Data were acquired and processed with MassLynx software (Waters, Manchester, UK), and are shown with minimal smoothing and without background subtraction. The relative abundances of the different oligomeric states were estimated from the intensities of the most abundant charge states for each construct and are expressed as a percentage of the total intensity.

[4] = 6-15 µM protein, pH 7.4, estimated error 5% (SD of 3-4 independent experiments)

Substance: SBD641: truncated human Hsp70 (384-641), full-length SBD with interdomain linker
- Oligomer fraction, no NR peptide [1]: ca. 0.7
- Random-coil content estimated from far-UV CD [2]: 49%
- α-helix content estimated from far-UV CD [2]: 33%
- β-sheet content estimated from far-UV CD [2]: 18%
- Affinity of refolded SBD641 for substrate (refolded SBD641): same affinity as the native protein
- Dimer population [3, 4]: 40%
- Monomer population [3, 4]: 46%
- Total oligomer population [3, 4]: > 50% and 54%
- Trimer population [3, 4]: 12%
- Tetramer population ([3]; low μM protein, pH 7.4): 2%
